In PMC3130059:

Experiments:
[1] = molecular target: dansyl-calmodulin (dansyl-CaM) (bovine) (UniProt P62157); test: other fluorescence titration; 1 µM dansyl-CaM titrated with Ras protein (GppNHp form); […]; 20 mM HEPES pH 7.4, 150 mM NaCl, 1 mM CaCl2, 1 mM MgCl2; excitation 335 nm, emission at 480 nm
[2] = molecular target: full-length K-RasB (unprocessed) (UniProt P01116); test: ITC; 0.3–0.8 mM CaM in the syringe injected into 20–40 µM Ras protein (GppNHp form) in the cell; […]; 20 mM HEPES pH 7.4, 150 mM NaCl, 1 mM CaCl2, 1 mM MgCl2; single set of identical sites model
K-RasB-K175A = K-RasB-K175A (UniProt P01116); test: as above
[3] = molecular target: farnesylated K-RasB-K175A (UniProt P01116); test: as above
[4] = molecular target: H-Ras-(KKKKKK), chimeric H-Ras with the polylysine region of K-RasB at 175-180 (UniProt P01112); test: as above
farnesylated K-RasB = farnesylated K-RasB (UniProt P01116); test: as above

Kd [1] [µM] | dH [2] [kcal/mol] | stoichiometry N [2] | dH (K-RasB-K175A) [kcal/mol] | stoichiometry N (K-RasB-K175A) | dH [3] [kcal/mol] | stoichiometry N [3] | Kd [4] [µM] | dH [4] [kcal/mol] | stoichiometry N [4] | dH (farnesylated K-RasB) [kcal/mol] | stoichiometry N (farnesylated K-RasB) | Substance
2.53 |  |  |  |  |  |  |  |  |  |  |  | H-Ras-(KKKKKK), chimeric H-Ras with the polylysine region of K-RasB at 175-180 (from UniProt P01112 1-189) (natural protein)
 | 3.63 | 0.924 | 2.48 | 0.995 | 1.01 | 0.972 | 3.89 | 6.16 | 0.903 | 3.33 | 1.13 | calmodulin (CaM), Ca^2+-saturated, from bovine brain (from UniProt P62157 1-149) (natural protein)
